Experimental data published in paper PMC2192206.

Target: lymphocyte function associated-1 (LFA-1, CD11a/CD18) (UniProt P20701)
Test: radioligand binding

lymphocyte function associated-1 (LFA-1, CD11a/CD18), sequence (P20701 26-1170, chain 1 of 2): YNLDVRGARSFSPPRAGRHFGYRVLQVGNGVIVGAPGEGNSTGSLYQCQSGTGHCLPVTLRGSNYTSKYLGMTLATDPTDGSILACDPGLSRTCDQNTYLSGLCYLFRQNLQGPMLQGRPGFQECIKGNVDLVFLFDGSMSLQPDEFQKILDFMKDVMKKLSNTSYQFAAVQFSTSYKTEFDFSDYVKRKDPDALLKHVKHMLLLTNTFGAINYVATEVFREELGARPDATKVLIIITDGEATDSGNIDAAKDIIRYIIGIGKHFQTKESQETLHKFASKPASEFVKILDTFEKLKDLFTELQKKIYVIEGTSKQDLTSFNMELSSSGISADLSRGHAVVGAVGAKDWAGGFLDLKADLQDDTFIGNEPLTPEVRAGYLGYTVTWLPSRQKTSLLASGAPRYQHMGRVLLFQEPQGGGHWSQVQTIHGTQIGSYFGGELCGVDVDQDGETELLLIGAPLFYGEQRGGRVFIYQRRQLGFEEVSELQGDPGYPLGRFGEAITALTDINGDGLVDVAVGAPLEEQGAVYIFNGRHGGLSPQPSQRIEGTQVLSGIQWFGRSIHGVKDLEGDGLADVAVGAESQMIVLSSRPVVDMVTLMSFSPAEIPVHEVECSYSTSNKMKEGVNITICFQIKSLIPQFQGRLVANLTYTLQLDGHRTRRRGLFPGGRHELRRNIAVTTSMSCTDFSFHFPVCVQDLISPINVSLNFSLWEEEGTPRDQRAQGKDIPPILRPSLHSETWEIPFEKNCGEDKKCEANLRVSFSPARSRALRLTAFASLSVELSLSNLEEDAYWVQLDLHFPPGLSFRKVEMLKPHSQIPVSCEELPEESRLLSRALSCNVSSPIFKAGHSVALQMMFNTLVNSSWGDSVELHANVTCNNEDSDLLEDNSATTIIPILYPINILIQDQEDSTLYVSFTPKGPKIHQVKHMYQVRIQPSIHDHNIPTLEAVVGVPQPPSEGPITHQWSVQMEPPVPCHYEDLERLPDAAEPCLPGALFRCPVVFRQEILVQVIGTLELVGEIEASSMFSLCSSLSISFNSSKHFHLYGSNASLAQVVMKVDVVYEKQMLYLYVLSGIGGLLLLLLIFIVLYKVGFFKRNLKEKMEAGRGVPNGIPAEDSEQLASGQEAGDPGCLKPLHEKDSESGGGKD
lymphocyte function associated-1 (LFA-1, CD11a/CD18), sequence (P05107 23-769, chain 2 of 2, further chain): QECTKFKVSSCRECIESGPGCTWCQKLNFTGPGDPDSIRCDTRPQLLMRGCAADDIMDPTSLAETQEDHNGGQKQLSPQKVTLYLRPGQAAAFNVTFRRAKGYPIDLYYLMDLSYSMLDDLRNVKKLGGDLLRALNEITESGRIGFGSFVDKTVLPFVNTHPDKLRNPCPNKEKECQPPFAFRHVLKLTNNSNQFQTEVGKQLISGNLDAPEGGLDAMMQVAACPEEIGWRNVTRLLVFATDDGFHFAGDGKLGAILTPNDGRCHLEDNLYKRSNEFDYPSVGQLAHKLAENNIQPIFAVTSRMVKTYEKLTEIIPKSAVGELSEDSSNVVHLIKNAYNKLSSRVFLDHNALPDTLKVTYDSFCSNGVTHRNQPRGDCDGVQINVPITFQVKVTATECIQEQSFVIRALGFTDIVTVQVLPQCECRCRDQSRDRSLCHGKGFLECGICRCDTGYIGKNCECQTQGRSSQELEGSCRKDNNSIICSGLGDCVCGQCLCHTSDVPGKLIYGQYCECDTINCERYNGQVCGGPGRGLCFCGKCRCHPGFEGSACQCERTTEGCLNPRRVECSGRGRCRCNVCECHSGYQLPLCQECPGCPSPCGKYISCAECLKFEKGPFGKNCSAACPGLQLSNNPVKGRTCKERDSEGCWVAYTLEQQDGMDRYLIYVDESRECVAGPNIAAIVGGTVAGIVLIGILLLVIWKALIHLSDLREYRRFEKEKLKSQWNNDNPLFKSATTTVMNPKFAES

## ICAM-1-HA dimer (from UniProt P05362 28-480) (complex)
  KD of the high affinity component: 8 nM
